Measurements published in patent publication US20080131419A1.

Assays:
[1] = target: actin filaments (F-actin) of lily pollen tubes
[2] = target: actin filaments (F-actin) of lily pollen tubes (lily (Lilium grandiflorum / Lilium longiflorum cv. Osnat)); test: cell-based or functional assay

inhibition of lily pollen tube elongation, 1 uM enzymatically heat-inactivated RNase B1 (EI-RNase B1) [2]: 55%
B1: Aspergillus niger B1 extracellular RNase (RNase B1) (protein)
chain: TIDTCSSDSPLSCQTDNEASCCFNSPGGSLLQTQFWDYDPSDGPSGSWTIHGLWPDNCDGTYQEYCDESREYSNITSILEAQNRTELLSYMKEYWPDYEGADEDESFWEHEWNKHGTCINTIEPSCYTDYYAQEEVGDFFQQVVDLFKTLDSYTALSDAGITPSEDATYKLSDIEDALAAIHDGYPPYVGCEDGALSQLYYYFNVKGSAIGGTYVASERLEDSNCKDSGIKYPPKYSSSKKIYGSSL
actin filament distribution in pollen tubes (TRITC-phalloidin staining) [1]: in RNase-treated pollen tubes masses of F-actin were accumulated at the tip cell wall
lily pollen tube length in vitro, RNase B1 100 units/ml (16 ug/ml), 2 h (control about 300 um) [1]: reached only 160 µm in length
lily pollen tube length in vitro, autoclaved RNase B1 (control about 300 um) [1]: Boiling or autoclaving the RNase yielded pollen tubes of 130 and 170 µm in length, respectively
lily pollen tube length in vitro, boiled RNase B1 (control about 300 um) [1]: Boiling or autoclaving the RNase yielded pollen tubes of 130 and 170 µm in length, respectively
